Reference: PMC12102759 (2025)

B1: SH3BP2 peptide 408-423 (SH3 domain-binding protein 2), 16-mer library wild type / TNKS ANK (TNKS 12 ANK repeats, residues 174-649) (parent complex)
chain 1: PQLPHLQRSPPDGQSF
chain 2: TGVPAVSGALRELLEACRNGDVSRVKRLVDAANVNAKDMAGRKSSPLHFAAGFGRKDVVEHLLQMGANVHARDDGGLIPLHNACSFGHAEVVSLLLCQGADPNARDNWNYTPLHEAAIKGKIDVCIVLLQHGADPNIRNTDGKSALDLADPSAKAVLTGEYKKDELLEAARSGNEEKLMALLTPLNVNCHASDGRKSTPLHLAAGYNRVRIVQLLLQHGADVHAKDKGGLVPLHNACSYGHYEVTELLLKHGACVNAMDLWQFTPLHEAASKNRVEVCSLLLSHGADPTLVNCHGKSAVDMAPTPELRERLTYEFKGHSLLQAAREADLAKVKKTLALEIINFKQPQSHETALHCAVASLHPKRKQVTELLLRKGANVNEKNKDFMTPLHVAAERAHNDVMEVLHKHGAKMNALDTLGQTALHRAALAGHLQTCRLLLSYGSDPSIISLQGFTAAQMGNEAVQQILSESTPIRTSD
B2: AXIN1 peptide 237-252 (Axin-1), 16-mer library wild type / PP2A B56 (PPP2R5A B56 domain, residues 1-486) (parent complex)
chain 1: YLPTLNEDEEWKADQD
chain 2: not shown

Variants of: B1
Assay: proteomic peptide phage display deep mutational scan (ProP-PD DMS): M13 P8 16-mer library selected against immobilised GST-tagged bait for four days (rounds), NGS of the eluted pools per day and pseudo-replica; bait immobilised on MaxiSorp plates (10 µg), library pre-cleared on GST, 2 h binding at 4 °C, five washes; one round per day, days 1-4; value from days 2 and 3

Variant | screen value
chain 1 PQLPHLDRSPPDGQSF [chain 1 Q7D] | 0.00248 average fractional NGS count over selection days 2 and 3 (reads of this peptide / all reads for the bait, averaged over …
chain 1 PQLPHLQRSPADGQSF [chain 1 P11A] | 0.000639 average fractional NGS count over selection days 2 and 3 (reads of this peptide / all reads for the bait, averaged over …
chain 1 PQLPHLQESPPDGQSF [chain 1 R8E] | 0.000101 average fractional NGS count over selection days 2 and 3 (reads of this peptide / all reads for the bait, averaged over …
chain 1 PQLPHLQRSPPDGGSF [chain 1 Q14G] | 0.000379 average fractional NGS count over selection days 2 and 3 (reads of this peptide / all reads for the bait, averaged over …
chain 1 PQLPHLQRSPPDGTSF [chain 1 Q14T] | 0.00291 average fractional NGS count over selection days 2 and 3 (reads of this peptide / all reads for the bait, averaged over …
chain 1 PQLPHLQRSPPDGLSF [chain 1 Q14L] | 0.000462 average fractional NGS count over selection days 2 and 3 (reads of this peptide / all reads for the bait, averaged over …
chain 1 PQLPHLQRSPPDGRSF [chain 1 Q14R] | 0.000901 average fractional NGS count over selection days 2 and 3 (reads of this peptide / all reads for the bait, averaged over …
chain 1 PQLPHLQRSPPDGASF [chain 1 Q14A] | 0.00095 average fractional NGS count over selection days 2 and 3 (reads of this peptide / all reads for the bait, averaged over …
chain 1 PQLPHLQRSPPDGKSF [chain 1 Q14K] | 0.00049 average fractional NGS count over selection days 2 and 3 (reads of this peptide / all reads for the bait, averaged over …
chain 1 PQLPHLQRSPPDGYSF [chain 1 Q14Y] | 0.000878 average fractional NGS count over selection days 2 and 3 (reads of this peptide / all reads for the bait, averaged over …
chain 1 PQLPHLQRSPPDGNSF [chain 1 Q14N] | 0.000561 average fractional NGS count over selection days 2 and 3 (reads of this peptide / all reads for the bait, averaged over …
chain 1 PQLPHLQRSPPDGHSF [chain 1 Q14H] | 0.00138 average fractional NGS count over selection days 2 and 3 (reads of this peptide / all reads for the bait, averaged over …
chain 1 PQLPHLQRSPPDGFSF [chain 1 Q14F] | 0.000219 average fractional NGS count over selection days 2 and 3 (reads of this peptide / all reads for the bait, averaged over …
chain 1 PQLPPLQRSPPDGQSF [chain 1 H5P] | 0.000222 average fractional NGS count over selection days 2 and 3 (reads of this peptide / all reads for the bait, averaged over …
chain 1 PQLPGLQRSPPDGQSF [chain 1 H5G] | 0.000153 average fractional NGS count over selection days 2 and 3 (reads of this peptide / all reads for the bait, averaged over …
chain 1 PQLPRLQRSPPDGQSF [chain 1 H5R] | 0.00137 average fractional NGS count over selection days 2 and 3 (reads of this peptide / all reads for the bait, averaged over …
chain 1 PQLPILQRSPPDGQSF [chain 1 H5I] | 0.000472 average fractional NGS count over selection days 2 and 3 (reads of this peptide / all reads for the bait, averaged over …
chain 1 PQLPTLQRSPPDGQSF [chain 1 H5T] | 0.000644 average fractional NGS count over selection days 2 and 3 (reads of this peptide / all reads for the bait, averaged over …
chain 1 PQLPYLQRSPPDGQSF [chain 1 H5Y] | 0.000149 average fractional NGS count over selection days 2 and 3 (reads of this peptide / all reads for the bait, averaged over …
chain 1 PQKPHLQRSPPDGQSF [chain 1 L3K] | 0.000138 average fractional NGS count over selection days 2 and 3 (reads of this peptide / all reads for the bait, averaged over …
chain 1 PQYPHLQRSPPDGQSF [chain 1 L3Y] | 0.000217 average fractional NGS count over selection days 2 and 3 (reads of this peptide / all reads for the bait, averaged over …
chain 1 PQMPHLQRSPPDGQSF [chain 1 L3M] | 0.000961 average fractional NGS count over selection days 2 and 3 (reads of this peptide / all reads for the bait, averaged over …

Variant | screen value
chain 1 PQHPHLQRSPPDGQSF [chain 1 L3H] | 0.000462 average fractional NGS count over selection days 2 and 3 (reads of this peptide / all reads for the bait, averaged over …
chain 1 PQQPHLQRSPPDGQSF [chain 1 L3Q] | 0.000641 average fractional NGS count over selection days 2 and 3 (reads of this peptide / all reads for the bait, averaged over …
chain 1 PQFPHLQRSPPDGQSF [chain 1 L3F] | 0.000552 average fractional NGS count over selection days 2 and 3 (reads of this peptide / all reads for the bait, averaged over …
chain 1 PQLPHAQRSPPDGQSF [chain 1 L6A] | 0.00118 average fractional NGS count over selection days 2 and 3 (reads of this peptide / all reads for the bait, averaged over …
chain 1 PQLPHDQRSPPDGQSF [chain 1 L6D] | 0.00436 average fractional NGS count over selection days 2 and 3 (reads of this peptide / all reads for the bait, averaged over …
chain 1 PQLPHHQRSPPDGQSF [chain 1 L6H] | 0.000142 average fractional NGS count over selection days 2 and 3 (reads of this peptide / all reads for the bait, averaged over …
chain 1 PQLPHSQRSPPDGQSF [chain 1 L6S] | 0.000251 average fractional NGS count over selection days 2 and 3 (reads of this peptide / all reads for the bait, averaged over …
chain 1 PQLPHEQRSPPDGQSF [chain 1 L6E] | 0.00197 average fractional NGS count over selection days 2 and 3 (reads of this peptide / all reads for the bait, averaged over …
chain 1 PQLPHMQRSPPDGQSF [chain 1 L6M] | 0.000442 average fractional NGS count over selection days 2 and 3 (reads of this peptide / all reads for the bait, averaged over …
chain 1 PQLPHGQRSPPDGQSF [chain 1 L6G] | 0.000481 average fractional NGS count over selection days 2 and 3 (reads of this peptide / all reads for the bait, averaged over …
chain 1 PQLPHNQRSPPDGQSF [chain 1 L6N] | 0.000459 average fractional NGS count over selection days 2 and 3 (reads of this peptide / all reads for the bait, averaged over …
chain 1 PQLPHYQRSPPDGQSF [chain 1 L6Y] | 0.000851 average fractional NGS count over selection days 2 and 3 (reads of this peptide / all reads for the bait, averaged over …
chain 1 PQLPHWQRSPPDGQSF [chain 1 L6W] | 0.000131 average fractional NGS count over selection days 2 and 3 (reads of this peptide / all reads for the bait, averaged over …
chain 1 PQLPHVQRSPPDGQSF [chain 1 L6V] | 0.000569 average fractional NGS count over selection days 2 and 3 (reads of this peptide / all reads for the bait, averaged over …
chain 1 PQLVHLQRSPPDGQSF [chain 1 P4V] | 0.000162 average fractional NGS count over selection days 2 and 3 (reads of this peptide / all reads for the bait, averaged over …
chain 1 PQLTHLQRSPPDGQSF [chain 1 P4T] | 0.000173 average fractional NGS count over selection days 2 and 3 (reads of this peptide / all reads for the bait, averaged over …
chain 1 PQLGHLQRSPPDGQSF [chain 1 P4G] | 0.000551 average fractional NGS count over selection days 2 and 3 (reads of this peptide / all reads for the bait, averaged over …
chain 1 PQLWHLQRSPPDGQSF [chain 1 P4W] | 0.000229 average fractional NGS count over selection days 2 and 3 (reads of this peptide / all reads for the bait, averaged over …
chain 1 PQLMHLQRSPPDGQSF [chain 1 P4M] | 0.00173 average fractional NGS count over selection days 2 and 3 (reads of this peptide / all reads for the bait, averaged over …
chain 1 PQLNHLQRSPPDGQSF [chain 1 P4N] | 0.000673 average fractional NGS count over selection days 2 and 3 (reads of this peptide / all reads for the bait, averaged over …
chain 1 PQLYHLQRSPPDGQSF [chain 1 P4Y] | 0.000273 average fractional NGS count over selection days 2 and 3 (reads of this peptide / all reads for the bait, averaged over …
chain 1 PQLSHLQRSPPDGQSF [chain 1 P4S] | 0.000214 average fractional NGS count over selection days 2 and 3 (reads of this peptide / all reads for the bait, averaged over …

Variants of: B2
Assay: as above

Variant | screen value
chain 1 D14M | 0.0116 average fractional NGS count over selection days 2 and 3 (reads of this peptide / all reads for the bait, averaged over …
chain 1 D14R | 0.0071 average fractional NGS count over selection days 2 and 3 (reads of this peptide / all reads for the bait, averaged over …
chain 1 E9Y | 0.0102 average fractional NGS count over selection days 2 and 3 (reads of this peptide / all reads for the bait, averaged over …
chain 1 E9K | 0.00203 average fractional NGS count over selection days 2 and 3 (reads of this peptide / all reads for the bait, averaged over …
chain 1 E9F | 0.00128 average fractional NGS count over selection days 2 and 3 (reads of this peptide / all reads for the bait, averaged over …
chain 1 E9L | 0.000568 average fractional NGS count over selection days 2 and 3 (reads of this peptide / all reads for the bait, averaged over …
chain 1 K12T | 0.00858 average fractional NGS count over selection days 2 and 3 (reads of this peptide / all reads for the bait, averaged over …
chain 1 K12A | 0.00844 average fractional NGS count over selection days 2 and 3 (reads of this peptide / all reads for the bait, averaged over …
chain 1 D8M | 0.000462 average fractional NGS count over selection days 2 and 3 (reads of this peptide / all reads for the bait, averaged over …
chain 1 Q15Y | 0.00911 average fractional NGS count over selection days 2 and 3 (reads of this peptide / all reads for the bait, averaged over …
chain 1 E10Q | 0.000224 average fractional NGS count over selection days 2 and 3 (reads of this peptide / all reads for the bait, averaged over …
chain 1 E10S | 0.000255 average fractional NGS count over selection days 2 and 3 (reads of this peptide / all reads for the bait, averaged over …
chain 1 E10H | 0.000923 average fractional NGS count over selection days 2 and 3 (reads of this peptide / all reads for the bait, averaged over …
chain 1 E10G | 0.00014 average fractional NGS count over selection days 2 and 3 (reads of this peptide / all reads for the bait, averaged over …
